Assay results reported in paper PMC10724065, “Evolution of a plant growth-regulatory protein interaction specificity” (Nature Plants, 2023).

B1: Arabidopsis thaliana AtSLY1 (yeast bait fusion) [Arabidopsis thaliana] / A. thaliana RGA (yeast prey fusion) [Arabidopsis thaliana] (parent complex)
chain 1: MKRSTTDSDLAGDAHNETNKKMKSTEEEEIGFSNLDENLVYEVLKHVDAKTLAMSSCVSKIWHKTAQDERLWELICTRHWTNIGCGQNQLRSVVLALGGFRRLHSLYLWPLSKPNPRARFGKDELKLTLSLLSIRYYEKMSFTKRPLPESK
chain 2: MKRDHHQFQGRLSNHGTSSSSSSISKDKMMMVKKEEDGGGNMDDELLAVLGYKVRSSEMAEVALKLEQLETMMSNVQEDGLSHLATDTVHYNPSELYSWLDNMLSELNPPPLPASSNGLDPVLPSPEICGFPASDYDLKVIPGNAIYQFPAIDSSSSSNNQNKRLKSCSSPDSMVTSTSTGTQIGGVIGTTVTTTTTTTTAAGESTRSVILVDSQENGVRLVHALMACAEAIQQNNLTLAEALVKQIGCLAVSQAGAMRKVATYFAEALARRIYRLSPPQNQIDHCLSDTLQMHFYETCPYLKFAHFTANQAILEAFEGKKRVHVIDFSMNQGLQWPALMQALALREGGPPTFRLTGIGPPAPDNSDHLHEVGCKLAQLAEAIHVEFEYRGFVANSLADLDASMLELRPSDTEAVAVNSVFELHKLLGRPGGIEKVLGVVKQIKPVIFTVVEQESNHNGPVFLDRFTESLHYYSTLFDSLEGVPNSQDKVMSEVYLGKQICNLVACEGPDRVERHETLSQWGNRFGSSGLAPAHLGSNAFKQASMLLSVFNSGQGYRVEESNGCLMLGWHTRPLITTSAWKLSTAAY
B2: Arabidopsis thaliana AtSLY1 (yeast bait fusion) [Arabidopsis thaliana] / A. thaliana GAI (yeast prey fusion) [Arabidopsis thaliana] (parent complex)
chain 1: B1 chain 1
chain 2: MKRDHHHHHHQDKKTMMMNEEDDGNGMDELLAVLGYKVRSSEMADVAQKLEQLEVMMSNVQEDDLSQLATETVHYNPAELYTWLDSMLTDLNPPSSNAEYDLKAIPGDAILNQFAIDSASSSNQGGGGDTYTTNKRLKCSNGVVETTTATAESTRHVVLVDSQENGVRLVHALLACAEAVQKENLTVAEALVKQIGFLAVSQIGAMRKVATYFAEALARRIYRLSPSQSPIDHSLSDTLQMHFYETCPYLKFAHFTANQAILEAFQGKKRVHVIDFSMSQGLQWPALMQALALRPGGPPVFRLTGIGPPAPDNFDYLHEVGCKLAHLAEAIHVEFEYRGFVANTLADLDASMLELRPSEIESVAVNSVFELHKLLGRPGAIDKVLGVVNQIKPEIFTVVEQESNHNSPIFLDRFTESLHYYSTLFDSLEGVPSGQDKVMSEVYLGKQICNVVACDGPDRVERHETLSQWRNRFGSAGFAAAHIGSNAFKQASMLLALFNGGEGYRVEESDGCLMLGWHTRPLIATSAWKLSTN

Variants of: B1
Assay: yeast 2-hybrid; read off a plot
For chain 1 T128S, the response was ~1.3 β-galactosidase units. With chain 1 K126N the response was ~3.9 β-galactosidase units. For chain 1 T128A, the response was ~24 β-galactosidase units. For chain 1 P114L, the response was ~1.5 β-galactosidase units. chain 1 P114S was tested, and the response was ~3.6 β-galactosidase units. In the case of chain 1 E138K, the response is reported as ~3.7 β-galactosidase units. With chain 1 H104Y the response was ~55 β-galactosidase units. chain 1 K126T was tested, and the response was ~0.6 β-galactosidase units.

Variants of: B2
Assay: pull-down (IP: His, immunoblot); parent: 1
In the case of chain 1 G84D, the ratio to parent is reported as 1.41. chain 1 T128A was tested, and the ratio to parent was 2.36. With chain 1 H104Y the ratio to parent was 3.05.

Variants of: B2
Assay: yeast 2-hybrid; parent: 0.3; read off a plot
chain 1 T128A was tested, and the response was ~86 β-galactosidase units. For chain 1 H104Y, the response was ~120 β-galactosidase units. In the case of chain 1 P114S, the response is reported as ~41 β-galactosidase units. With chain 1 P114L the response was ~37 β-galactosidase units. For chain 1 T128S, the response was ~44 β-galactosidase units. chain 1 K126E was tested, and the response was ~19 β-galactosidase units. For chain 1 K126T, the response was ~24 β-galactosidase units. For chain 1 K126N, the response was ~51 β-galactosidase units. In the case of chain 1 E138K, the response is reported as ~15 β-galactosidase units.

Variants of: B2
Assay: yeast 2-hybrid; parent: 0.35; read off a plot
In the case of chain 1 T128A, the response is reported as ~77 β-galactosidase units. chain 1 H104Y was tested, and the response was ~99 β-galactosidase units. With chain 1 P114L the response was ~25 β-galactosidase units. With chain 1 E138K the response was ~17 β-galactosidase units. With chain 1 T128A, chain 1 E138K the response was ~110 β-galactosidase units. chain 1 P114L, chain 1 E138K was tested, and the response was ~77 β-galactosidase units. chain 1 H104Y, chain 1 E138K was tested, and the response was ~160 β-galactosidase units.

Variants of: B2
Assay: pull-down (IP: His, immunoblot); without GST-GID1C, without GA3 (GAI in A Form); parent: 1
With chain 1 T128A the ratio to parent was 2.27. chain 1 H104Y was tested, and the ratio to parent was 5.65. For chain 1 P114L, the ratio to parent was 1.89. Variant chain 1 E138K has a ratio to parent of 1.86.

Variants of: B2
Assay: pull-down (IP: His, immunoblot); with GST-GID1C, with GA3 (GAI in A + A' Forms); parent: 2.41
For chain 1 T128A, the response was 9.37 relative anti-MBP band intensity (SLY1 without GST-GID1C and GA3 = 1.00). With chain 1 H104Y the response was 11.8 relative anti-MBP band intensity (SLY1 without GST-GID1C and GA3 = 1.00). For chain 1 P114L, the response was 7.38 relative anti-MBP band intensity (SLY1 without GST-GID1C and GA3 = 1.00). In the case of chain 1 E138K, the response is reported as 3.88 relative anti-MBP band intensity (SLY1 without GST-GID1C and GA3 = 1.00).

Variants of: B2
Assay: yeast 2-hybrid; parent: 0.3; read off a plot
Remark: another data set of the same source
For chain 1 H104Y, the response was ~110 β-galactosidase units. chain 1 H104F was tested, and the response was ~100 β-galactosidase units.

Variants of: B2
Assay: yeast 2-hybrid; parent: 0.35; read off a plot
Remark: another data set of the same source
chain 1 P114S was tested, and the response was ~55 β-galactosidase units. chain 1 P114L was tested, and the response was ~63 β-galactosidase units. In the case of chain 1 P114T, the response is reported as ~34 β-galactosidase units. In the case of chain 1 P114R, the response is reported as ~94 β-galactosidase units. In the case of chain 1 P114A, the response is reported as ~89 β-galactosidase units. chain 1 P114H was tested, and the response was ~77 β-galactosidase units.

Variants of: B2
Assay: yeast 2-hybrid; parent: 0.38; read off a plot
chain 1 K126R was tested, and the response was ~0.26 β-galactosidase units.
